Assay [1] addresses T1, human CD47ECD mouse Fc protein (human, UniProt Q08722 19-139, limits assumed).
T1 construct: extracellular domain; also called HuCD47ECD muFc; bivalent CD47ECD muFc protein; not shown: mouse Fc
The assay is described as follows: SPR (Biacore 3000); antibody captured on anti-human Fc chip, bivalent HuCD47ECD muFc injected; column Affinity (nM). Here is the method: (§1) The binding affinities of anti-human CD47 mouse/human chimeric antibodies to human CD47 protein were determined with BIACORE™ using a capture method. The anti-human CD47 mouse/human chimeric antibodies were captured using anti-human Fc antibody coated on a CMS chip. Serial dilutions of human CD47ECD mouse Fc protein starting from 400 nM were injected over captured antibody for 1 mins at a flow rate of […]. Alternatively, serial dilutions of human CD47ECD His tagged protein starting from 800 nM were injected over captured antibody for 1 min at a flow rate of […]. The antigens were allowed to dissociate for 900s. All the experiments were carried out on a Biacore 3000. Data analysis was carried out using Biacore 3000 evaluation software.

Assay [2] deals with T2, human CD47ECD His tagged protein (human, UniProt Q08722 19-139, limits assumed).
T2 construct: extracellular domain; also called HuCD47ECD 8xHis; monovalent CD47ECD His tagged protein
T2 sequence (Q08722 19-139 limits assumed): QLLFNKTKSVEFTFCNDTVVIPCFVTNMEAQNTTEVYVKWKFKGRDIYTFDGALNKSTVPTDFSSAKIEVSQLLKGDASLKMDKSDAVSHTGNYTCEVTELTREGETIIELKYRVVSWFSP
The experiment in a line: SPR (Biacore 3000); antibody captured on anti-human Fc chip, monovalent HuCD47ECD 8xHis injected; column Affinity (nM). The procedure:
as §1

Assay [3] addresses T2, human CD47ECD His tagged protein. The experiment in a line: SPR (Biacore 3000); antibody captured on anti-human Fc chip, monovalent HuCD47ECD 8xHis injected. Here is the method:
as §1

The target in assay [4] is T3, human CD47 (full length) expressed on cells (human, UniProt Q08722 19-323).
T3 construct: whole, on cells; also called human CD47/CHO cells; CHO/CD47 cells
T3 sequence (Q08722 19-323): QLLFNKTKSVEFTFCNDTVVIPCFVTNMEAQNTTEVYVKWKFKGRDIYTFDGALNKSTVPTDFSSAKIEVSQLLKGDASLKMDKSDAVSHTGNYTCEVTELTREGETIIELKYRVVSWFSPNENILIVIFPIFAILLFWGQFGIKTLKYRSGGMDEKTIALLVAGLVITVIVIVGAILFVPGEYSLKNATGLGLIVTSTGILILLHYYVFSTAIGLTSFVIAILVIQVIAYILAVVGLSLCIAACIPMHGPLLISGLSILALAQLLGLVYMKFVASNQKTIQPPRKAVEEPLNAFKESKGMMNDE
The experiment in a line: FACS ligand blocking on CD47-CHO cells; blocked ligand FITC human SIRPa huFc at 4 ug/ml. Here is the method: To evaluate the blocking effect of anti-human CD47 mouse/human chimeric antibodies to human full length CD47 expressed on CHO cells, the FACS-based ligand blocking assay was used. CD47-CHO cells were first incubated with 3 fold serially diluted mouse/human chimeric mAbs starting at 100 μg/ml on ice for 30 min. […] The cells were then washed 3 times with the FACS buffer and the mean florescence intensities (MFI) of FITC were evaluated by FACS Caliber. […] AB6.12 is a humanized version of anti-CD47 antibody 2A1 from Celgene and was used as a reference antibody in the assay.

The target of assay [5] is T1, human CD47ECD mouse Fc protein. The assay is described as follows: SPR (Biacore 3000); antibody captured on anti-human Fc chip, bivalent HuCD47ECD muFc injected. The procedure:
as §1

The target of assay [6] is T2, human CD47ECD His tagged protein. The assay is described as follows: ELISA ligand blocking, plate coated with human CD47 ECD His tagged protein at 1 ug/ml; blocked ligand human SIRPaECD muFc at 1 ug/ml, anti-mouse IgG-HRP. Here is the method: Briefly, microtiter plates were coated with human CD47ECD His tagged protein at 1 μg/ml in PBS, 100 μl well at 4° C. overnight, then blocked with 100 μl/well of 2% BSA. […] The plates were washed with PBS/Tween and then incubated with anti-mouse IgG-HRP for 1 hour at 37° C. After washing, the plates were developed with TMB substrate and analyzed by spectrophotometer at OD 450 nm.

The target in assay [7] is T3, human CD47 (full length) expressed on …. The assay is described as follows: FACS ligand blocking on CD47-CHO cells; blocked ligand FITC human SIRPa huFc at 5 ug/ml. Here is the method:
The cells were then washed 3 times with the FACS buffer and the mean florescence intensities (MFI) of FITC were evaluated by FACS Caliber.

T1 sequence (Q08722 19-139 limits assumed): as the sequence (Q08722 19-139 limits assumed) above

B1: D8S1 mouse/human chimeric anti-human CD47 antibody (antibody, V domains shown)
VH: EVQLQQSVAELVRPGASVKLSCTVSGFNIKNTYIYWVKQRPEQGLEWIGRIDPANGNTKDAPKFQGKATMTADTSSNTAYLQLSSLTSEDTAIYYCARGYGSGFAYWGQGTLVTVSA
VL: DIQMTQTTSSLSASLGDRVTISCRASQDISNHLNWYQQKPDGIVKLLIYYTSRLHSGVPSRFSGSGSGTDYSLTISNLEQEDIATYFCQQGSTLPFTFGSGTKLEIK
notes: also called chimeric D8S1
Turning to B1, the Kd in assay [1] came out at 0.295 nM; in assay [2] it was 3.28 nM; in assay [3], 3.28 nM; in assay [5], 0.295 nM. Besides, the koff in assay [3] amounted to 0.00049 s⁻¹; in assay [5], 4.77e-05 s⁻¹. The association rate constant (kon) in assay [3] came out at 150000 M⁻¹ s⁻¹; in assay [5] it was 161000 M⁻¹ s⁻¹. Further, in assay [4], the IC50 is 19.4 µg/mL.

B2: D96S1 mouse/human chimeric anti-human CD47 antibody (antibody, V domains shown)
VH: EVQLQQSGAELVKPGASVKLSCTASGFNIKDTYIHWVKQRPEQGLEWIGRIDPANGNIKSDPKFQGKATVTADTSSNTAYLQLSSLTSEDTAVYYCARSYGSSFASWGQGTLVTVSP
VL: DIQMTQTTSSLSASLGDRVTISCRASQDISNHLNWYQQKPDGAVKLLIYYTSRLHSGVPSRFSGSGSGTDYSLTISNLEQEDIATYFCQQGSTFPYTFGGGTKLEIK
notes: also called chimeric D96S1
Turning to B2, the Kd in assay [1] came to 0.562 nM; in assay [2] it was 3.13 nM; in assay [3], 3.13 nM. The results for the off-rate constant (koff) in assay [3] and in assay [5] were 0.000253 s⁻¹ and 1.45e-05 s⁻¹, respectively. Further, the values for the on-rate constant (kon) in assay [3] and in assay [5] were 80900 M⁻¹ s⁻¹ and 257000 M⁻¹ s⁻¹, respectively. In assay [4], this molecule showed an IC50 of 11.3 µg/mL.

B3: D41S2 mouse/human chimeric anti-human CD47 antibody (antibody, V domains shown)
VH: EVQLQQSVAELVRPGASVKLSCTPSGFNIKNTYIYWVRQRPEQGLEWIGRIDPANGNTKDAPKFQGKATMTADTSSNTAYLQLSSLTSEDTAIYYCARGYGSGFAYWGQGTLVTVSA
VL: DIQMTQTTSSLSASLGDRVTISCRASQDISNHLNWYQQKPDGTVKLLIYYTSRLHSGVPSRFSGSGSGTDYSLTISNLEQEDIATYFCQQGSTLPFTFGSGTKLEIK
notes: also called chimeric D41S2
As to B3, the Kd was 0.228 nM in assay [1], 5.2 nM in assay [2], 5.2 nM in assay [3] and 0.228 nM in assay [5]. For the same molecule, the off-rate (koff) in assay [3] was found to be 0.000756 s⁻¹; in assay [5] it was 3.34e-05 s⁻¹. In addition, the on-rate (kon) was 145000 M⁻¹ s⁻¹ in assay [3] and 147000 M⁻¹ s⁻¹ in assay [5]. In assay [4], this molecule showed an IC50 of 11.6 µg/mL.

B4: D28S1 mouse/human chimeric anti-human CD47 antibody (antibody, V domains shown)
VH: EVQLVESGGDLVKPGGSLKLSCAASGFTFTSYGMSWVRQTPDKRLEWVATINTGGSYTYYPDSVKGRFTISRDNAKNTLYLQMSSLKSEDTAMYYCARHTIKSLMDYWGQGTSVTVSS
VL: ETTVTQSPASLSMAIGEKVTIRCITSTDIDDDMNWYQQKPGEPPKLLISEGNTLRPGVPSRFSSSGYGTDFVFIIENMFSEDVADYYCLQSDNLPYTFGSGTKLEIK
notes: also called chimeric D28S1; D28S1VH/VL
Regarding B4, the Kd in assay [1] amounted to 1.38 nM. Further, the IC50 in assay [4] turned out to be 12.3 µg/mL. For the same molecule, in assay [5], the Kd came out at 1.38 nM, the off-rate constant (koff) is 0.000413 s⁻¹ and the on-rate (kon) stood at 299000 M⁻¹ s⁻¹.

B5: D125S3 mouse/human chimeric anti-human CD47 antibody (antibody, V domains shown)
VH: EVQLVESGGDLVKPGGSLNLSCAASGFTFSDYGMSWVRQTPDMRLEWVATISKYGTYTSYPDSVKGRFTISRSNAKNTLYLQMSSLKSADTALYYCARRFFGNYNYWYFDVWGAGTTVTVSS
VL: DIVLTQSPASLAVSLGQRATFSCRASESVDEFGISYIHWYKKSPGQPPKLLIYRASTLESGISARFSGSGSGTDFTLTINPVETDDVATYYCQQSNQDPLTFGAGTKLELK
notes: also called chimeric D125S3
With B5, the Kd in assay [1] is 0.346 nM; in assay [2] it was 3.62 nM; in assay [3] it was 3.62 nM; in assay [5], 0.346 nM. Besides, the dissociation rate constant (koff) in assay [3] is 0.000511 s⁻¹; in assay [5], 7.72e-05 s⁻¹. For the same molecule, the kon in assay [3] was 163000 M⁻¹ s⁻¹; in assay [5], 223000 M⁻¹ s⁻¹. 15.4 µg/mL corresponded to half-maximal inhibition in assay [4] (IC50).

B6: HuD36S4 H2/L1 humanized anti-CD47 antibody (antibody, V domains shown)
VH: EVQLVESGGGLVQPGGSLRLSCAASGFTFSRYWMNWVRQAPGKGLEWVGQIRLKSDNYETHYAESVKGRFTISRDDSKNSLYLQMNSLKTEDTAVYYCIEEGGYYVPFAYWGQGTLVTVSS
VL: DIVMTQSPDSLAVSLGERATINCKSSQSLFKSRTRKNYLAWYQQKPGQPPKLLIYWASIRESGVPDRFSGSGSGTDFTLTISSLQAEDVAVYYCKQSYYLLTFGGGTKVEIK
B6: the figures for the IC50 in assay [6] and in assay [7] were 0.09 µg/mL and 1.9 µg/mL, respectively.

B7: HuD36S4 H2/L2 humanized anti-CD47 antibody (antibody, V domains shown)
VH: EVQLVESGGGLVQPGGSLRLSCAASGFTFSRYWMNWVRQAPGKGLEWVGQIRLKSDNYETHYAESVKGRFTISRDDSKNSLYLQMNSLKTEDTAVYYCIEEGGYYVPFAYWGQGTLVTVSS
VL: DIVMTQTPLSLPVTPGEPASISCKSSQSLFKSRTRKNYLAWYLQKPGQSPQLLIYWASIRESGVPDRFSGSGSGTDFTLKISRVEAEDVGVYYCKQSYYLLTFGGGTKVEIK
Regarding B7, the IC50 worked out at 0.11 µg/mL in assay [6] and 3.6 µg/mL in assay [7].

B8: HuD36S4 H3/L2 humanized anti-CD47 antibody (antibody, V domains shown)
VH: EVQLVESGGGLVQPGGSLRLSCAASGFTFSRYWMNWVRQAPGKGLEWVAQIRLKSDNYETHYAESVKGRFTISRDDSKSSLYLQMNSLKTEDTAVYYCIEEGGYYVPFAYWGQGTLVTVSS
VL: DIVMTQTPLSLPVTPGEPASISCKSSQSLFKSRTRKNYLAWYLQKPGQSPQLLIYWASIRESGVPDRFSGSGSGTDFTLKISRVEAEDVGVYYCKQSYYLLTFGGGTKVEIK
As for B8, the figures for the half-inhibitory concentration (IC50) in assay [6] and in assay [7] were 0.1 µg/mL and 2.5 µg/mL, respectively.

B9: HuD36S4 H1/L2 humanized anti-CD47 antibody (antibody, V domains shown)
VH: EVQLVESGGGLVQPGGSLRLSCAASGFTFSRYWMNWVRQAPGKGLEWVGQIRLKSDNYETHYAESVKGRFTISRDDSKNSLYLQMNSLKTEDTAVYYCAREGGYYVPFAYWGQGTLVTVSS
VL: DIVMTQTPLSLPVTPGEPASISCKSSQSLFKSRTRKNYLAWYLQKPGQSPQLLIYWASIRESGVPDRFSGSGSGTDFTLKISRVEAEDVGVYYCKQSYYLLTFGGGTKVEIK
For B9, the concentration for half-maximal inhibition (IC50) turned out to be 2.76 µg/mL in assay [6] and 13 µg/mL in assay [7].

B10: HuD36S4 H3/L1 humanized anti-CD47 antibody (antibody, V domains shown)
VH: EVQLVESGGGLVQPGGSLRLSCAASGFTFSRYWMNWVRQAPGKGLEWVAQIRLKSDNYETHYAESVKGRFTISRDDSKSSLYLQMNSLKTEDTAVYYCIEEGGYYVPFAYWGQGTLVTVSS
VL: DIVMTQSPDSLAVSLGERATINCKSSQSLFKSRTRKNYLAWYQQKPGQPPKLLIYWASIRESGVPDRFSGSGSGTDFTLTISSLQAEDVAVYYCKQSYYLLTFGGGTKVEIK
Turning to B10, the IC50 in assay [6] was 0.17 µg/mL; in assay [7], 4.4 µg/mL.

B11: HuD36S4 H1/L1 humanized anti-CD47 antibody (antibody, V domains shown)
VH: EVQLVESGGGLVQPGGSLRLSCAASGFTFSRYWMNWVRQAPGKGLEWVGQIRLKSDNYETHYAESVKGRFTISRDDSKNSLYLQMNSLKTEDTAVYYCAREGGYYVPFAYWGQGTLVTVSS
VL: DIVMTQSPDSLAVSLGERATINCKSSQSLFKSRTRKNYLAWYQQKPGQPPKLLIYWASIRESGVPDRFSGSGSGTDFTLTISSLQAEDVAVYYCKQSYYLLTFGGGTKVEIK
As for B11, the concentration for half-maximal inhibition (IC50) is 2.3 µg/mL in assay [6] and 7.3 µg/mL in assay [7].

Source of the values: patent publication US20210206850A1 (ACCURUS BIOSCIENCES, published 2021).
